assay: soluble on expression in E. coli; label from the status in PepcDB or PDB records

Sequence | soluble on expression in E. coli
MSLESLAAKVVERLNRAESAAELRFCHDELARELRRCLAPEQMKQLAGDVVCVHEAILRRAFFLAERETMKRSVGIRPPAWCWYVMGSIGRCEPTIWTDQDHGILFNCPEEEEAACYEFIRHMAAVGVDMLHEAGYPYCSGYVMATNKRWAQSVRGWEQQLSSYLDSGWPNDIRFLLIAMDMRPLYGEAELAEKARKALFAAVAKRPPLLARMGEHVQFPPVPLGWLGNVQTERWGPYSGAVHMKQSGYVQLTNALKWLACFAHVPTAGTAERRRALEANGVLTAPLSDAVCEALSVYYSIRLKYSTEAGDGREYVLWRALERTEQKQLKQAMRTAKRLQRFVARRVANIHAEGHHHHHH | soluble
GNYENINSNPYEAPDLSADGYALGSAMNNLAGCVVSPDVNTAQFTDCLLGGPLGGYFADSNAGFTETISNFNPKDDWSRVFLKSDKIIPTLYSNLTQVKLVSQNTNDPVPYAIAQVIKVAAMHRVTDAFGPIPYSQIGANGEIATPYDSQEVTYNTFFDELNAAIATLNENSNEQLVPTADYIYKGDVKKWIRFANSLKLRLAIRIAYANPVKAQQMAEEAVNPANGGVIESNADNATWNYFETSQNPIYVATRYNQVQTSDHGGVPCLTGGDTHAAADIICYMNGYKDNRREKFFTKSEWAGQDYVGMRRGIVIPELKTTGHKYSGVNIAPTSPLYWMNAAEVAFLRAEGQAVFNFSMGGTAESFYNQGIRLSFEQWGADGVEDYLKDDVNKPTAYTDPAGTNTYQNALSNITIKWNDSADKEEKQERIIVQKWIANWQLGNEAWADFRRTGYPKLIPVKENKSGGVVDSEKGARRMPYPLDEFVSNKANVEYAIANYLHGADNMATDVWWASKK | soluble
MDVQKKAQMVIEEVKKAIVGKDNVLKLVLATILADGHILIEDLPGLAKTLMAKSFAKALGLEFKRVQFTPDLLPSDILGVNVFNQKTLEFEFKKGPVFTNILLADEINRAPPKTQSALLEAMQERQVTIEGVTYKLPKPFIVIATQNPIEQEGTYPLPEAQLDRFLVRLRMGYPSKDEEKEILRRRIERKQDEVEIETVLSPKDVLKMQREVEDVYVSDAIIEYITSLVWATREDKRDIEIGVSPRGSLALLKLSRAYAAIEGRDYVIPDDVKAVAIPALSHRIILKRELWYTRVSQESVIEKILERVPVPKFE | soluble
GPGSMAHCCFLIYPLAKVADESFLQLLFDDSVKRSAFLGYPPRRFAIVELEESQNEAVLRAIGARDDDGRVEAREDNADTPFVDLFTRTGAKKGTDRNEPIGLRMGCIPHLSQVRFRRTYLRVIVSPVTIDELFGCVQKDSNHVKKEKRSLKRSRHTDEDAGPWVPRWPVANGDPTLAGRVEVVSMTGASRAGLSGDPEDERYREPYAECSGGPVCNMSPPKTFLSDDSAGDAAGRRALDVSVQNLIRELGFDK | not soluble
MCMNKKRIYKFRRFLARKLDFPSDAVMYTPRINISVTGDEEITIENYRGIVEFSDENIKVNTEVGTISIDGKNFEIVFISGSTIILGGKFKTIAYGGDKNEALEHHHHHH | soluble
AVPETRPNHTIYINNLNEKIKKDELKKSLYAIFSQFGQILDILVSRSLKMRGQAFVIFKEVSSATNALRSMQGFPFYDKPMRIQYAKTDSDIIAKMKGTFVERDRKREKRKPKSQE | soluble
NDAIIILNGEKVLDLNKKGREAFGLGARELDNISIGSLLSEKDLPAVRDALKTTLENGSACFEMKFRKQNGEVIDVEVSSSFLSLEEGEIQCVARD | not soluble
MGSMDQSIAVKSPLTYAEALANTIMNTYTVEELPPANRWHYHQGVFLCGVLRLWEATGEKRYFEYAKAYADLLIDDNGNLLFRRDELDAIQAGLILFPLYEQTKDERYVKAAKRLRSLYGTLNRTSEGGFWHKDGYPYQMWLDGLYMGGPFALKYANLKQETELFDQVVLQESLMRKHTKDAKTGLFYHAWDEAKKMPWANEETGCSPEFWARSIGWYVMSLADMIEELPKKHPNRHVWKNTLQDMIKSICRYQDKETGLWYQIVDKGDRSDNWLESSGSCLYMYAIAKGINKGYLDRAYETTLLKAYQGLIQHKTETSEDGAFLVKDICVGTSAGFYDYYVSRERSTNDLHGAGAFILAMTELEPLFRSAGK | soluble
MTVLMRLVASAYSIAQKAGMIVRRVIAEGDLGIVEKTCATDLQTKADRLAQMSICSSLARKFPKLTIIGEEDLPSEEVDQELIEDSQWEEILKQPCPSQYSAIKEEDLVVWVDPLDGTKEYTEGLLDNVTVLIGIAYEGKAIAGVINQPYYNYEAGPDAVLGRTIWGVLGLGAFGFQLKEVPAGKHIITTTRSHSNKLVTDCVAAMNPDAVLRVGGAGNKIIQLIEGKASAYVFASPGCKKWDTCAPEVILHAVGGKLTDIHGNVLQYHKDVKHMNSAGVLATLRNYDYYASRVPESIKNALVPAHHHHHH | soluble
MGHHHHHHSHMEFRSVAERICGDIVLSENSGEALRKWRSIFNASQSDLARKLGISPSVISDYESGRRKPGTAFLKKFVCALIELDGERGYQVLSKYRYFLESDHKAVLDIAEYQKTAEPSEFCEVIEGKMLTHFDKAIHGHTVIDSINAILSLNAFDFYRLYGLTSERALIFTRVSTGRSPMVAVRVSNLKPSAVVLHGLEAERVDEMAKKIAEIERIPLVVTEIAIGEIVKRLRRKFA | not soluble
YEFKKRNNIPMFFGIGNVTELFDVDSNGVNASIAAIGQEIGGNILFTPEASKKCKFSIKELKTASKMLFLAKKRNSLPKDVGYDLINYKDKKFDEEFELEDVKIIEAFENEKQLLDRGSFKIRVDRKNKEINATYYVHNQPKLIIRGNDPKKIYETALRENLITKMDHAAYFGKELRNAELALKLGKKYNQDFELFYNEFWN | not soluble
MRGNLKLFELKSGRGEKLMKNILIISSSPRKKGNSQILCEQFKKGAEAKGHQVKIVRIMEQNIGFCRACDGCMRNGGTCVLKDDMAEILKMFQKADVLVLATPVYFYGISAQMKTFIDRTYPIWQHLGKKEVYYIISAGLGEDIIERSLGDLNGFVEHLEEYKISGKIYAANVMDAGLVKNQSVFQKAYDMGYAI | not soluble
QYSLLHVSDLFFLAQQAMPGVQVLDALTGKPVEGASVDASMRYSIDRSVHTLSPTDRYGRIDLPKSYNRFFPYTDGDRSYPVVSAYTYKQDQVDLSKKNERKYIVSTDRAIYRPGQKVHFFGQCDRIGYAVEDARAIGGSEVEVVLEDANSKEIGRLLCQADEMGRFSGSFDLPTGILNGLFGLRVGGDTYPFSVEEYKRPTFEVGLRSPDAAYAMGDTLRIRGEAKTFTGIGMRGATVNYRLSLTPYTRRWWGRPVADRVVQTGEAVVDES | not soluble
MLKSVLGKFSVGDKMIEVTFLGAGGGRFVTITQVRSTGGFFIKASKNIFVDPGPGALIRMIRYKLDPRKIDVLFISHRHTDHCNDAEVIVEGMTYGVTKRRGILIGSRSVVHGDDAHTPALSKYHLEALEEVHAPNPGDRFKLGNEDMVITPSVHSDPTTIGFRLKTNFGDISYIADTEYFEGLEEWHDGTRVLIASVTRPRDMKIPYHLSTDDVVYMLKKMKEKPEVLIMTHLGMKMHFAGPYKEAEYIQNVTGVKTYVAKEGFRITIGKEIHVKTLRPVRFVLEHHHHHH | soluble
MGSDKIHHHHHHMSLQSGEWREQIDEVDAALIDEFQSDFPIQERPFEAVGDALGVSAGTALDRVKTLRDDGIFRRFGPVLNPPVIGSSTLAAVSAPEDRFDEVAEIINGYRQVNHNYARDHEWNMWFVVTAGSRQRRDEILAEIEERTGCSVLVLPMLTDYYIDLEFPVVNGDRFARESLETTDATATRISEDAAADLSELDRRLLLEIQSGFPLVATPYRDVADAVDADVSEVLSAIKRLQRTGCIKRIGCVVNHIVTGFDNNCMVVWDVPDDALDERGQAVGELPYVTLCYHRPRRPEQDWQYNLFTMIHGREADIVDEKIDELATDHLPYDHGRLYSTETLKQTGARYDDIVGQ | not soluble
MSSSTSPFLRAISRLIKASFFALSKFSLNCMYKSIQAELLKITYLAFMVKAMIFIPKEKHVYSFGPDMKEVARAKPGEIIVFETLDALGGQIRSEEDTVEKIDFSRVNPATGPVYIEGAEKGKILKVKILEIEVNDRGVIVTAPGAGVLGDLVKAPKTKVCRIANGFVQFGEFKIPVRPMIGVIGVASPEEIPTGTPGRHGGNMDTNLITEGSTVYFPIFKDGAYLALGDLHAVMADGEVCVSACEVSGKVTVKTEVLSGSIEWPIVETSDAYYILVSEEDLEDAVREAVKQGVDILRRANELSWDEAYMLASLIMDVQISQLVDPRKTVRVRIPKQYLKMSLFLEHHHHHH | not soluble
MAHHHHHHMSWRTRVVRCPLQEPHNPFDMGRVMQRFWSPFCKGVKGPDLHTYGFGETFSGMRTHDSDFTCQVNGQVGGAKLVEDFFITLLCGFDFEHVKVERHLTTSGAADPCQFQGTIVLAHTRPFLGWCPQPVTHSLEKCPSPSECDATKVSTNNINELGNTTATASRCLVQTGGNTEAPVPSLILNVPFTARLEGNVGRISHMILRSPAIGVIAAHQCCPAEVGSCLQNPEALQALVTLRRANVRPEMITDRTLVGITAKKAAWCSALGIL | not soluble
MGSDKIHHHHHHMKNFVTSERSIFEMEKSTEPAIRVKDGSVVKIKTKDHFNGQIHAKQLHYGELDWKQFSPTTGPIYIEEARPGDLLAITIEKIELLGTEVFLLNGPNIGITDDLLTSNSTRCYKVENNQIIYSEDIHIPIRKTIGLLKTEELNPSKVPTKNGGLLDSSKITEGATIFLPVEKYGASLHVGNVRATTGFGKITATSAEAPAEVTLRLQILKNRTAPTPTIIHYHNLICLASDITIEKATQKTMHNMITLLTESDKMTTEDALFLISLQADFQVCKLCKPNITTSIKLPLDYFPEMPFL | not soluble
MNDRARELASRLIRNFNEASLEHEVREPLYESAAARLGTGTVAHKLGASVDVVAPGKRSCPYHFHHAQEEMFVIIEGEGSLRVAGEMLPIKTGDVLFIPAGPEYPHQIINTSQAPLKYLSISTRETPEVCEYPDSGKYQAMVSANGARVFTANQRTTENVDYWDGEPLEHHHHHH | soluble
MSYDICIIGSGAGASPIAHQLSKAGAKVLVLEKGPWLTEKEFFKDELTISIHDAYNPKLTDEQHVIEEEYFDENDKPFWQGEKTSDSGWSWWNGNVVGGSSNFMSGYFHRLKPIDFRLKSEFGAISGANVEDWPISYDELEPYYAKVEREVGVSGRVVEHPHQEPRSTDFPYPPIAELPMSSWIDKAAQKIGYHAIPVPRAILSKPAMGRRSCEYSGYCSSYGCASGAKGSGRAALLNNAVASGNCTIQANAKVYKIATDKQGEITGVHYYDKIGRKKSVTAKIYVVACQAVETSRLLLASTGEKFPQGLANNNGQVGKNLLFSGGGTGQGDFNYADLSDKQVGELKQVGPFINRALQDWYQIADKSFTGANAKGQAKGGTIDFLFHQNPIARARGTQWGSDQNGDDKLLWGEDLKQSLKTEFTSYKTLRFEVFNDWLPTDDCFVSLDNEVTDQWGDPVAKVRIGYHDHDLEVGEYLSKKAEKLLEALGAKNVSSSVSGYPSTNLMAGGCRFGNDPKTSVLNKTCQAHEVDNLYVTDGSFMPTGGSVPYTFTIYANAFRVADKIKAHWLTLKSLEHHHHHH | not soluble
METQIHQLEQEAYTAVLRAFKAQSDAISWEKESLITELRKELRVSDDEHRELLSRVNKDDTIQRIRDWRQGGASQITRHATIQPFDVLPSPTFSAARKKQKTFPSYNPSIGATGNRSFNNRLVSSGISGNESAEALIGRKVWTKWPEDNHFYEAIITQYNADEGRHALVYDIHAANETWEWVDLKEIPPEDIRWDGEESGVALNIGHGSASFRGNRRGQIHGGRGRGPRIHQPRRELVPPPTQQNGSGGRRTSSDDIELFNTDSLVKEVERVFDSTHPDPLELDKAKKMLKEHEQALIAAIARLADTSDGEMDGDPPYSHDHPMPQG | not soluble

Source: the DeepSol protein solubility set
